Experimental data as given in patent publication US20090311183 (published 2009).
Where a chain is given by its changes, count along the chain named. Where two headings read alike, the source gives them in different places. One block for each binder: values may come before it.

Experiments:
Test in all cases: SPR
human MMP-12 [1] = target: human MMP-12 (human)
human MMP-12 [2] = target: human MMP-12 (human); remark: listed apart in the source
mouse MMP-12 = mouse MMP-12 (mouse)
Chain of mouse MMP-12 (mouse) (chain, as listed by the source): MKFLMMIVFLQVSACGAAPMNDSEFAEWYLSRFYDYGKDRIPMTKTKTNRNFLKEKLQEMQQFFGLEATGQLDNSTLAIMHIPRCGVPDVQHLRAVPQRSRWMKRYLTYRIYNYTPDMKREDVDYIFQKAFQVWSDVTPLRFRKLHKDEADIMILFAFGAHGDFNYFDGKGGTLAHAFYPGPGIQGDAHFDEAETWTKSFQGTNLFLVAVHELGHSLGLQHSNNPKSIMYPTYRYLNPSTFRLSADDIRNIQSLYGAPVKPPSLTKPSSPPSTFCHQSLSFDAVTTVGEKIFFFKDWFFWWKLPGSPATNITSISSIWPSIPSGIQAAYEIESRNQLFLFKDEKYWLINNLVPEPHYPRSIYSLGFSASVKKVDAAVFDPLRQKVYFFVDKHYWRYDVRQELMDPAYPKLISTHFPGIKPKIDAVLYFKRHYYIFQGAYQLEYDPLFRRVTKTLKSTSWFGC

Chain of human MMP-12 (human) (B2R9X8 whole entry): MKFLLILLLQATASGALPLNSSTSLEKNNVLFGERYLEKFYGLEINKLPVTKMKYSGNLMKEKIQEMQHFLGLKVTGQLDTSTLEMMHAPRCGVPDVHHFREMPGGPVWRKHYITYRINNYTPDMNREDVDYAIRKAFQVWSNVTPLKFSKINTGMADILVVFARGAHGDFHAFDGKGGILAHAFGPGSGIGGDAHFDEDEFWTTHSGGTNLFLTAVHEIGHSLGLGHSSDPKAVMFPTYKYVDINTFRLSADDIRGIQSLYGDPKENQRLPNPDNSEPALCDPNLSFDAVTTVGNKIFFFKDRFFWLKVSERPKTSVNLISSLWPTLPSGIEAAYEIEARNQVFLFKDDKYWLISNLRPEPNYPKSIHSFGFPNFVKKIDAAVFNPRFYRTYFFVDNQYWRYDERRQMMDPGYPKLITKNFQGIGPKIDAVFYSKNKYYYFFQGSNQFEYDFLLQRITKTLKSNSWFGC

- Kd (human MMP-12 [1]): 197 pM
B1: 539B-M0121-E07 (antibody, V domains shown)
VH: EVQLLESGGGLVQPGGSLRLSCAASGFTFSWYGMHWVRQAPGKGLEWVSGIVSSGGETFYADSVKGRFTISRDNSKNTLYLQMNSLRAEDTAVYYCAKDIRGVFLSGLFDHWGRGTLVTVSS
VL: DIQMTQSPSSLSASVGDRVTITCRANQSIYTYLNWYQQKPGKAPELLIYAASSLQSGVPSRFSGSGSGTDFTLTISSLQPEDFATYYCQQAGIFGQGTKLEIK

- Kd (human MMP-12 [2]): 680 pM
B2: 539B-M0130-C12 (antibody, V domains shown)
VH: EVQLLESGGGLVQPGGSLRLSCAASGFTFSEYNMHWVRQAPGKGLEWVSGIVPSGGLTHYADSVKGRFTISRDNSKNTLYLQMNSLRAEDTAVYYCARDIRGAYSAGIFDYWGRGTLVTVSS
VL: B1 VL

- koff (mouse MMP-12): 0.000193 s⁻¹
- Kd (human MMP-12 [1]): 1170 pM
B3: 539B-M0118-F11 (antibody, V domains shown)
VH: B2 VH with E31Y, V52S, L57T, H59F, R101T, I108L, Y111L
VL: B1 VL

- Kd (human MMP-12 [2]): 2200 pM
B4: 539B-M0065-H05 IgG (antibody, V domains shown)
VH: B1 VH with W31Y, H35G, G50V, V52S, E57F, V103A, F104Y, L105S, H111Y
VL: B1 VL

- koff (mouse MMP-12): 4.84e-05 s⁻¹
B5: 539B-M0131-A06 (antibody, V domains shown)
VH: B2 VH with E31W, N33W, V52S, L57M, H59M, R101V, A103P, I108L
VL: B1 VL
